Literature values in patent US9168216B2, “Carrier comprising one or more di and/or mono-(electron transfer agent) phosphate derivatives or complexes thereof” (priority 2005, dated 2015).

Conditions: subcutaneous, 25 μg/kg body weight

## PTH: human parathyroid hormone (fragment 1-34)
  Time of peak PTH level in rat plasma after injection: 40 to 60 min
  Time to complete turnover of PTH in plasma: ≤ 4 h
